Assay results as given in publication PMC3595137 (Nature communications, 2013).

What was measured:
[1] = target: T1, HA-α-SNAP M105I (hyh mutant) (human, UniProt P54920 1-295, M105I); experiment: co-IP
T1 sequence: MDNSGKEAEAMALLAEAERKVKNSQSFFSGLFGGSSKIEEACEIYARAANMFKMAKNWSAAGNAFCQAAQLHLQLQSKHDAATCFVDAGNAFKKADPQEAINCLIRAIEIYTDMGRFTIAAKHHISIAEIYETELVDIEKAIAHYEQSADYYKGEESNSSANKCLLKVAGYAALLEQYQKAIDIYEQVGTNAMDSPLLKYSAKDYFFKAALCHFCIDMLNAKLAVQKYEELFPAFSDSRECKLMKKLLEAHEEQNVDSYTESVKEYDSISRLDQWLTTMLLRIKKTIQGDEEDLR

[2] = target: FLAG-tagged AMPK-γ1 (wild type) (UniProt P54619 1-331); experiment: pull-down
Chain of FLAG-tagged AMPK-γ1 (wild type) (P54619 whole entry): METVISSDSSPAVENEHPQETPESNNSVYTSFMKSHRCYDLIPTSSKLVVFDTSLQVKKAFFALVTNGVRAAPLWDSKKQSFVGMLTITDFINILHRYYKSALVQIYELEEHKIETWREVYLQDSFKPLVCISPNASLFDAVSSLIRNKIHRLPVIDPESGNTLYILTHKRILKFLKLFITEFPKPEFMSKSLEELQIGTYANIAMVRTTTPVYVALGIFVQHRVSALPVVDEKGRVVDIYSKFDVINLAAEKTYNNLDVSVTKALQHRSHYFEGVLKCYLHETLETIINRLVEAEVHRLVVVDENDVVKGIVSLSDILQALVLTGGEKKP

B1: FLAG-AMPKα2 (natural protein)
chain: MAEKQKHDGRVKIGHYVLGDTLGVGTFGKVKIGEHQLTGHKVAVKILNRQKIRSLDVVGKIKREIQNLKLFRHPHIIKLYQVISTPTDFFMVMEYVSGGELFDYICKHGRVEEMEARRLFQQILSAVDYCHRHMVVHRDLKPENVLLDAHMNAKIADFGLSNMMSDGEFLRTSCGSPNYAAPEVISGRLYAGPEVDIWSCGVILYALLCGTLPFDDEHVPTLFKKIRGGVFYIPEYLNRSVATLLMHMLQVDPLKRATIKDIREHEWFKQDLPSYLFPEDPSYDANVIDDEAVKEVCEKFECTESEVMNSLYSGDPQDQLAVAYHLIIDNRRIMNQASEFYLASSPPSGSFMDDSAMHIPPGLKPHPERMPPLIADSPKARCPLDALNTTKPKSLAVKKAKWHLGIRSQSKPYDIMAEVYRAMKQLDFEWKVVNAYHLRVRRKNPVTGNYVKMSLQLYLVDNRSYLLDFKSIDDEVVEQRSGSSTPQRSCSAAGLHRPRSSFDSTTAESHSLSGSLTGSLTGSTLSSVSPRLGSHTMDFFEMCASLITTLAR
fold increase in co-immunoprecipitation against WT α-SNAP [1]: ~2 fold

B2: purified recombinant α-SNAP (His-tagged, wild type) (natural protein)
chain: MDNSGKEAEAMALLAEAERKVKNSQSFFSGLFGGSSKIEEACEIYARAANMFKMAKNWSAAGNAFCQAAQLHLQLQSKHDAATCFVDAGNAFKKADPQEAINCLMRAIEIYTDMGRFTIAAKHHISIAEIYETELVDIEKAIAHYEQSADYYKGEESNSSANKCLLKVAGYAALLEQYQKAIDIYEQVGTNAMDSPLLKYSAKDYFFKAALCHFCIDMLNAKLAVQKYEELFPAFSDSRECKLMKKLLEAHEEQNVDSYTESVKEYDSISRLDQWLTTMLLRIKKTIQGDEEDLR
fold increase in binding with ATP against no nucleotide [2]: 2 fold
